One may read the stoichiometry N as the number of molecules, sites or subunits per partner or assembly.

The target in experiment [1] is srTRPM2–ΔNUDT9-H (Salpingoeca rosetta) (UniProt F2UB89). Kind of experiment: cryo-EM structure; purified protein in GDN or nanodisc with CaCl2–ADPR (1:1 mM), MgCl2–AMP–R5P (10:1:1 mM) or MgCl2–ADPR (10:1 mM; 5 s, 10 s or 4 min); fully ligand-bound states; NUDT9-H layer tetramerised via the buckle helix.
Experiment [2] has the same target. Briefly: cryo-EM structure; purified protein with EDTA (1 mM), CaCl2 (1 mM), MgCl2 (10 mM) or EDTA–ADPR (1:1 mM), 30 min; apo or partially ligand-bound states; C4 symmetry; NUDT9-H domains flexible, not tetramerised.
Experiment [3] has as its target srTRPM2–E1114A (Salpingoeca rosetta). Kind of experiment: cryo-EM structure; purified protein in GDN or nanodisc with CaCl2–ADPR (1:1 mM), MgCl2–AMP–R5P (10:1:1 mM) or MgCl2–ADPR (10:1 mM; 5 s, 10 s or 4 min); fully ligand-bound states; NUDT9-H layer tetramerised via the buckle helix.
Experiment [4] concerns the target T1, srNUDT9-H (isolated domain) (Salpingoeca rosetta, UniProt F2UB89).
T1 construct: gene PTSG_05449; TwinStrepII-His8-eGFP tag, TEV-cleaved; expressed in tsA201 cells; monomeric
Kind of experiment: HPLC fluorescence of etheno-AMP, Michaelis-Menten fit. The format is biochemical. The conditions noted are these: 10 mM MgCl2 final, TBS-GDN, 25 °C.

The target of experiment [5] is T2, srTRPM2 (Salpingoeca rosetta, UniProt F2UB89, R275A).
T2 construct: gene PTSG_05449; full length; N-terminal TwinStrepII-His8-eGFP tag (thrombin-cleaved for enzyme assays and nanodiscs); expressed in tsA201 cells; homotetramer, GDN detergent or nanodisc
T2 sequence (F2UB89 entry or part of it R275A): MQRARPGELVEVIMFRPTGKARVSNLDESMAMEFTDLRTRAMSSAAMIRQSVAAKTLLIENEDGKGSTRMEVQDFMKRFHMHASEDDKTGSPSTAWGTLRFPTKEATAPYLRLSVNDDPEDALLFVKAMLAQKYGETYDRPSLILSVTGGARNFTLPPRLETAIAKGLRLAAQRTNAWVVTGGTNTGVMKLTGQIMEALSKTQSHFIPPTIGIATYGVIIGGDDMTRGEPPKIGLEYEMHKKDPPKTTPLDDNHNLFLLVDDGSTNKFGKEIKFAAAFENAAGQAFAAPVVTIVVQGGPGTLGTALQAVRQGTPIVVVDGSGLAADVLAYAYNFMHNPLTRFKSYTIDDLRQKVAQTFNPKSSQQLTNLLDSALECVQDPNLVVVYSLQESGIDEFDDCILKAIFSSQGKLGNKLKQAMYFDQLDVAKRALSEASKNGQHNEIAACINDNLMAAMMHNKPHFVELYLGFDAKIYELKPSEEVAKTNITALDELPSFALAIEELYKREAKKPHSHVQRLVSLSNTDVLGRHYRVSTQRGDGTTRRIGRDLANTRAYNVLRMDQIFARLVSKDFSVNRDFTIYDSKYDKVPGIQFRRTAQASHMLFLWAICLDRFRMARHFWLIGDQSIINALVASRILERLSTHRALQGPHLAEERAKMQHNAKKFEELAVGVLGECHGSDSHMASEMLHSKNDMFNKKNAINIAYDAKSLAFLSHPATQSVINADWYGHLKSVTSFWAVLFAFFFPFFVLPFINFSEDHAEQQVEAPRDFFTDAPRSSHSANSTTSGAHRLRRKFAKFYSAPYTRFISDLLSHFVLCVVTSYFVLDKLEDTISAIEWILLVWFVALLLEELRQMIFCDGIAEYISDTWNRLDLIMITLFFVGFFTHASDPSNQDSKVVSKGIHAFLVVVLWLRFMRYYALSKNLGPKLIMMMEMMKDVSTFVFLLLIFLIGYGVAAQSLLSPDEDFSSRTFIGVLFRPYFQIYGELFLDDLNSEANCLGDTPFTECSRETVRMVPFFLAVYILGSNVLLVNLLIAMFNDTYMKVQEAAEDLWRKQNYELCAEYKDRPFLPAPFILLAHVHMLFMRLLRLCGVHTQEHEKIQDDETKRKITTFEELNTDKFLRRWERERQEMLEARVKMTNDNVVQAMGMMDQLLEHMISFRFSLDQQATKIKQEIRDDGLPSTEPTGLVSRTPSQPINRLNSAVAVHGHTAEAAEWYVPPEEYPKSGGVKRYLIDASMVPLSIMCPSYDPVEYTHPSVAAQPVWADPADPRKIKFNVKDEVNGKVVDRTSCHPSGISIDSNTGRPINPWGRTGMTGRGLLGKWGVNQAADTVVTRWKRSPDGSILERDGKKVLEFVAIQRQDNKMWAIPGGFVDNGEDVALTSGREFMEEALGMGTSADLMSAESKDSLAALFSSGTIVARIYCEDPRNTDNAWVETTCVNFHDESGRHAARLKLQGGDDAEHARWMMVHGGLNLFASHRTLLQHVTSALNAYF
Kind of experiment: inside-out patch clamp, tsA201 cells, +[…] mV. The format is biochemical. The conditions noted are these: Ca2+ with ADPR; MHR1/2 site; no activation; reduced expression level. (In general: In patch-clamp work, channel activity is measured electrically.)

Experiment [6] deals with T3, srTRPM2 (Salpingoeca rosetta, UniProt F2UB89).
T3 construct: gene PTSG_05449; full length; N-terminal TwinStrepII-His8-eGFP tag (thrombin-cleaved for enzyme assays and nanodiscs); expressed in tsA201 cells; homotetramer, GDN detergent or nanodisc
T3 sequence (F2UB89 entry or part of it): as the sequence (F2UB89 entry or part of it R275A) above, with A275R counted along it
Kind of experiment: HPLC fluorescence of etheno-AMP, Michaelis-Menten fit. The format is biochemical. The conditions noted are these: 10 mM MgCl2 final, TBS-GDN, 25 °C; all buckle helix residues mutated to alanine, positions not given.

In experiment [7] the target is T3, srTRPM2. The description is as above. The format is biochemical. The conditions noted are these: 10 mM MgCl2 final, TBS-GDN, 25 °C; buckle helix truncated, borders not given.
Experiment [8] has as its target T4, srTRPM2 (Salpingoeca rosetta, UniProt F2UB89, F268A).
T4 construct: gene PTSG_05449; full length; N-terminal TwinStrepII-His8-eGFP tag (thrombin-cleaved for enzyme assays and nanodiscs); expressed in tsA201 cells; homotetramer, GDN detergent or nanodisc
Kind of experiment: inside-out patch clamp, tsA201 cells, +[…] mV. The format is biochemical. The conditions noted are these: Ca2+ with ADPR; MHR1/2 site; no activation.

Experiment [9] deals with Salpingoeca rosetta TRPM2 chanzyme, wild type, full length (Salpingoeca rosetta). Kind of experiment: cryo-EM structure; purified protein in GDN or nanodisc with CaCl2–ADPR (1:1 mM), MgCl2–AMP–R5P (10:1:1 mM) or MgCl2–ADPR (10:1 mM; 5 s, 10 s or 4 min); fully ligand-bound states; NUDT9-H layer tetramerised via the buckle helix.
Experiment [10] shares this target. Kind of experiment: cryo-EM structure; purified protein with EDTA (1 mM), CaCl2 (1 mM), MgCl2 (10 mM) or EDTA–ADPR (1:1 mM), 30 min; apo or partially ligand-bound states; C4 symmetry; NUDT9-H domains flexible, not tetramerised.

T4 sequence (F2UB89 entry or part of it F268A): as the sequence (F2UB89 entry or part of it R275A) above, with F268A, A275R counted along it
T1 sequence (F2UB89 entry or part of it): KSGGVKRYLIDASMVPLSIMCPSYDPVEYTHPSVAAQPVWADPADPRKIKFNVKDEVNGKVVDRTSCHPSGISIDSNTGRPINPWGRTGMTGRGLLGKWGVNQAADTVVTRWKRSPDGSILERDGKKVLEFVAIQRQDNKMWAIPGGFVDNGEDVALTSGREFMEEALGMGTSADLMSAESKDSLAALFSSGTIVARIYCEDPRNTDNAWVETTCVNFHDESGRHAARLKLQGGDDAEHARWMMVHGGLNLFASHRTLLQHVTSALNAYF

In the case of “srTRPM2–ΔNUDT9-H (from UniProt F2UB89 1-1214) (domain or fragment)”, the stoichiometry N in [1] and in experiment [2] was 4 each time.
In turn, srTRPM2–E1114A (natural protein) showed a stoichiometry N in experiment [3] of 4.
On to `Nc1ncnc2c1ncn2[C@@H]1O[C@H](COP(=O)(O)OP(=O)(O)OC[C@H]2OC(O)[C@H](O)[C@@H]2O)[C@@H](O)[C@H]1O` (stereo partly shown) [ADPR], for which the KM result is “representing the rate of ADPR hydrolysis by the isolated srNUDT9-H domain” in [4], “srTRPM2 with the buckle helix residues replaced by alanine (BH2A)” in experiment [6] and “srTRPM2 lacking the buckle helix (ΔBH)” in experiment [7]. The “inside-out patch clamp, tsA201 cells, +60 mV” value in experiment [5] and in experiment [8] was “Replacement of either of these residues with alanine rendered srTRPM2 insensitive to ADPR” in each case.
Take “Salpingoeca rosetta TRPM2 chanzyme, wild type, full length (natural protein)”: the stoichiometry N in experiment [9] and in experiment [10] was 4 each time.

(Values after article PMC11479946, “Coupling enzymatic activity and gating in an ancient TRPM chanzyme and its molecular evolution” (Nature Structural & Molecular Biology, 2024).)
